{"source": "patent US20240158512A1", "about": "(TRUEBINDING, published 2024)", "binders": {"B1": {"name": "TB006 (antibody, human IgG4 S228P, kappa, V domains shown)", "VH": "QVQLVQSGAEVKKPGASVKVSCKASGYSFTNYYMHWVRQAPGQRLEWMGWIYPGSGNTNYNEKFQGRVTITADTSASTAYMELSSLRSEDTAVYYCSTAPGGFDVWGQGTTVTVSS", "VL": "DIVMTQTPLSLSVTPGQPASISCKSSKSLLHSDGITYLYWYLQKPGQSPQLLIYRMSNLASGVPDRFSGSGSGTDFTLKISRVEAEDVGVYYCAQMLEFPLTFGQGTKLEIKR", "notes": "Tested as drug product at 20 mg/mL in 20 mM L-histidine, 5 mM methionine, 100 mM NaCl, 0.02% polysorbate-80, pH 5.8; also called 4A11.H3L1; IMT006a"}}, "key": {"[1]": {"biological_target": "T1, Galectin-3 (UniProt P17931 1-250, limits assumed)", "T1 construct": "also called Gal3; GAL3", "T1 sequence (P17931 whole entry)": "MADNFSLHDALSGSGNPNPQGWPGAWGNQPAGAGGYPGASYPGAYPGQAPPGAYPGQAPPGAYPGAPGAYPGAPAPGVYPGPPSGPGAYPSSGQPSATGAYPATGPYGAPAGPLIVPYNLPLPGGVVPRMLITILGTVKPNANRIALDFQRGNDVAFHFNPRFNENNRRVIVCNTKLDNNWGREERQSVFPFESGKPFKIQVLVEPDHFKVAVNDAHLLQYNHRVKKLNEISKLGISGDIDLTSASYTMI", "assay": "ELISA biological activity (blocking ELISA, blocked partner not named); DP stored at 5° C. for 6 months"}, "[2]": {"biological_target": "T1, Galectin-3", "assay": "BLI binding activity; DP stored at 5° C. for 9 months"}, "[3]": {"biological_target": "T1, Galectin-3", "assay": "ELISA biological activity (blocking ELISA, blocked partner not named); DP stored at 5° C. for 1 month"}, "[4]": {"biological_target": "T1, Galectin-3", "assay": "ELISA biological activity (blocking ELISA, blocked partner not named); DP stored at 25° C. for 3 months"}, "[5]": {"biological_target": "T1, Galectin-3", "assay": "BLI binding activity; DP stored at 25° C. for 1 month"}, "[6]": {"biological_target": "T1, Galectin-3", "assay": "BLI binding activity; DP stored at 25° C. for 6 months"}, "[7]": {"biological_target": "T1, Galectin-3", "assay": "BLI binding activity; DP stored at 5° C. for 18 months"}, "[8]": {"biological_target": "T1, Galectin-3", "assay": "BLI binding activity; DP stored at 5° C. for 12 months"}, "[9]": {"biological_target": "T1, Galectin-3", "assay": "BLI binding activity; DP stored at 5° C. for 6 months"}, "[10]": {"biological_target": "T1, Galectin-3", "assay": "BLI binding activity; DP stored at 5° C. for 1 month"}, "[11]": {"biological_target": "T1, Galectin-3", "assay": "ELISA biological activity (blocking ELISA, blocked partner not named); 20 mg/mL DP, time 0; Time 0 (control), 20 mg/mL DP"}, "[12]": {"biological_target": "T1, Galectin-3", "assay": "BLI binding activity; DP stored at 5° C. for 3 months"}, "[13]": {"biological_target": "T1, Galectin-3", "assay": "ELISA biological activity (blocking ELISA, blocked partner not named); DP stored at 5° C. for 3 months"}, "[14]": {"biological_target": "T1, Galectin-3", "assay": "ELISA biological activity (blocking ELISA, blocked partner not named); DP stored at 5° C. for 9 months"}, "[15]": {"biological_target": "T1, Galectin-3", "assay": "ELISA biological activity (blocking ELISA, blocked partner not named); DP stored at 25° C. for 6 months"}, "[16]": {"biological_target": "T1, Galectin-3", "assay": "ELISA biological activity (blocking ELISA, blocked partner not named); DP stored at 25° C. for 1 month"}, "[17]": {"biological_target": "T1, Galectin-3", "assay": "ELISA biological activity (blocking ELISA, blocked partner not named); DP stored at 5° C. for 12 months"}, "[18]": {"biological_target": "T1, Galectin-3", "assay": "BLI binding activity; DP stored at 25° C. for 3 months"}, "[19]": {"biological_target": "T1, Galectin-3", "assay": "ELISA biological activity (blocking ELISA, blocked partner not named); DP stored at 5° C. for 18 months"}}, "data": [{"binder": "B1", "values": [{"measurement": "IC50", "setting": "[1]", "result": 1.5, "unit": "µg/mL"}, {"measurement": "Kd", "setting": "[2]", "result": 2.5, "unit": "nM"}, {"measurement": "IC50", "setting": "[3]", "result": 1.8, "unit": "µg/mL"}, {"measurement": "IC50", "setting": "[4]", "result": 1.5, "unit": "µg/mL"}, {"measurement": "Kd", "setting": "[5]", "result": 2.5, "unit": "nM"}, {"measurement": "Kd", "setting": "[6]", "result": 3.7, "unit": "nM"}, {"measurement": "Kd", "setting": "[7]", "result": 2, "unit": "nM"}, {"measurement": "Kd", "setting": "[8]", "result": 3.1, "unit": "nM"}, {"measurement": "Kd", "setting": "[9]", "result": 3.5, "unit": "nM"}, {"measurement": "Kd", "setting": "[10]", "result": 2.5, "unit": "nM"}, {"measurement": "IC50", "setting": "[11]", "result": 2.5, "unit": "µg/mL"}, {"measurement": "Kd", "setting": "[12]", "result": 3, "unit": "nM"}, {"measurement": "IC50", "setting": "[13]", "result": 1.5, "unit": "µg/mL"}, {"measurement": "IC50", "setting": "[14]", "result": 1.2, "unit": "µg/mL"}, {"measurement": "IC50", "setting": "[15]", "result": 1.5, "unit": "µg/mL"}, {"measurement": "IC50", "setting": "[16]", "result": 1.8, "unit": "µg/mL"}, {"measurement": "IC50", "setting": "[17]", "result": 1.5, "unit": "µg/mL"}, {"measurement": "Kd", "setting": "[18]", "result": 3.1, "unit": "nM"}, {"measurement": "IC50", "setting": "[19]", "result": 1.8, "unit": "µg/mL"}]}]}
